# Assay results reported in the supplement of paper PMC12042874.
# ± gives the uncertainty stated by the source.
# Assay: amyloid nucleation score (Sup35N fusion, yeast selection) (log enrichment); library NNK3; higher = more nucleation; inactive = no reads after selection
# How it was run: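 The nucleation score, computed with DiMSum, is the log enrichment of output over input reads, centred on the mode score of non-aggregating sequences. Sequences with under 100 input reads were dropped. Reads were generated by Illumina sequencing of plasmid inserts from psi-negative yeast with Sup35N fused to peptides of 20 random codons, induced with 100 μM copper sulfate for 24 hours and grown 7 days at 30°C on medium lacking adenine and uracil.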
row,Substance,amyloid nucleation score
1,TLNRLDSHGSFFRMNVREGV,inactive
2,TLNSDVSGSNIWASSYG,inactive
3,TLNVFVNN,2.26 ± 0.056
4,TLSLPLMTRWSLYLCSDWAS,inactive
5,TLWLRVLSFWTVCFLVHFTM,inactive
6,TLWMQILDAKYRSCSLRLRR,inactive
7,TMFIVNTNIWSGVCISDNTW,1.78 ± 0.067
8,TMHQLHKFFLHMKGASIDSV,inactive
9,TMKGTSKVSLLVSSGASRMG,inactive
10,TMLYGSIRQSGDMQMSTLSV,inactive
11,TMRNKMAY,inactive
12,TMVLIICDN,inactive
13,TMVQECHYARSVSLYYNANA,inactive
14,TMWTTGTTPPRMISHT,inactive
15,TNAFRLVLTNMKI,inactive
16,TNCGNQTILFIIYVTILEVC,0.397 ± 0.14
17,TNFPLALSSRIPSASQISMQ,-0.547 ± 1.5
18,TNFSRYEDFVLLFCPILYAF,inactive
19,TNLMLSLE,inactive
20,TNNCCNLLCMIQNPESCSFA,3.12 ± 0.065
21,TNVRALA,inactive
22,TNWDKNYYSCYIIKGLRWER,inactive

row,Substance,amyloid nucleation score
1,TPAMYFPIYFSAHGHLYLFY,inactive
2,TPCAKTIELHWCVVERRSSY,inactive
3,TPIHRL,0.451 ± 0.16
4,TPLSHNVRIMKKLGCDRRD,inactive
5,TPPVWTSPSSRLASCFKGLW,1.31 ± 0.15
6,TQLIIAGFVPNYVVLPWSAH,1.38 ± 0.11
7,TQLRTVCSTW,inactive
8,TQSWLCRV,inactive
9,TRAMHSFWFESDCKY,inactive
10,TRDQHIIYYFVEPFKIITGM,1.5 ± 0.099
11,TRDRCLRFKLVPVYFVWTCG,inactive
12,TRGSPRGRNEKSGYTSVMRG,inactive
13,TRHSHLCS,inactive
14,TRLFRDNFHFLGRSLSATYV,inactive
15,TRMGFYKAWYTAYVWRHALL,inactive
16,TRNMRWNFVDLARNRASLNS,inactive
17,TRPESETHGMMR,inactive
18,TRPLSDPVLINVYWRETSYP,-0.33 ± 0.47
19,TRRQTGYILSTLWLAHCHFR,inactive
20,TRSCNLNTFKVDASGPPWHG,inactive
21,TRSFVRSGAWNSLEGW,1.16 ± 0.16
22,TRTCRIWIKSVMGRRWVIRM,inactive

row,Substance,amyloid nucleation score
1,TSEVVQ,inactive
2,TSHNGPYLSMFFRVANT,inactive
3,TSIIYMFNSFL,2.9 ± 0.06
4,TSKFPSDLWSNPPEMYALFI,inactive
5,TSKRDYDRCRFL,inactive
6,TSLDCYLMRLFLGWEALKVW,inactive
7,TSSFVKSFRCYSAIG,inactive
8,TSTDVQVGYVNMLLLRVLFF,inactive
9,TSVRELNLMPCDENSTICDI,inactive
10,TSVSPRHLVSTSTMICSFAH,inactive
11,TSWCNSKPCEILYVGSMAKE,inactive
12,TSYDFTMARYCSNDYVFIWH,2.44 ± 0.061
13,TSYKKRFCGQYLMLNVNMSW,inactive
14,TSYYSMVEHSLKYQDRLMSS,inactive
15,TTASFFLNKISLKNHRASCT,inactive
16,TTGLISSNGVTG,inactive
17,TTGMRYCLVFDIGFSFWLFM,inactive
18,TTHNAFMSNNNIR,0.711 ± 0.13
19,TTLLFMKH,inactive
20,TTMNVTFVPANLWCKSSHEA,inactive
21,TTNDWHTFSGMVIKGWHIGK,inactive
